The values that follow come from patent publication US20220177549A1 (INVETX, published 2022).

What is called Kd is a measure of binding affinity in units of concentration.

The target of the assay is T1, equine FcRn complex (equine, UniProt F6XZ61 19-292; P30441 21-118).
T1 construct: Heterodimer of p51 extracellular domain (Avi-tag, 8x His) and Flag-tagged beta-2-microglobulin from HEK293 cells; also called horse FcRn
Description: SPR (Biacore 8K+), pH 5.9, 25 C; FcRn captured by anti-His, IgG as analyte; 1:1 kinetic model.

B1: Equine G426Y (antibody)
chain: APELLGGPSVFIFPPNPKDTLMITRTPEVTCVVVDVSQENPDVKFNWYMDGVEVRTATTRPKEEQFNSTYRVVSVLRIQHQDWLSGKEFKCKVNNQALPQPIERTITKTKGRSQEPQVYVLAPHPDELSKSKVSVTCLVKDFYPPEINIEWQSNGQPELETKYSTTQAQQDSDGSYFLYSKLSVDRNRWQQGTTFTCYVMHEALHNHYTQKNVSKNPGK
Consider B1, for which the “Fold increase over wild-type KD” value came out at 2.8 fold and the Kd is 52.3 nM.
